Assay results from patent US20220204581A1, “MONOMERIC PEPTIDE MULTI-AGONIST […] THE GLP1 RECEPTOR AND NPY RECEPTORS” (SYRACUSE UNIVERSITY, published 2022).
Read-outs that look alike come from different tables or passages of the source. Where no end group is shown, it is not given here. The star is where a group is joined. azido = [N-]=[N+]=N*

T1: human NPY2-R (human, UniProt P49146)
T1 sequence: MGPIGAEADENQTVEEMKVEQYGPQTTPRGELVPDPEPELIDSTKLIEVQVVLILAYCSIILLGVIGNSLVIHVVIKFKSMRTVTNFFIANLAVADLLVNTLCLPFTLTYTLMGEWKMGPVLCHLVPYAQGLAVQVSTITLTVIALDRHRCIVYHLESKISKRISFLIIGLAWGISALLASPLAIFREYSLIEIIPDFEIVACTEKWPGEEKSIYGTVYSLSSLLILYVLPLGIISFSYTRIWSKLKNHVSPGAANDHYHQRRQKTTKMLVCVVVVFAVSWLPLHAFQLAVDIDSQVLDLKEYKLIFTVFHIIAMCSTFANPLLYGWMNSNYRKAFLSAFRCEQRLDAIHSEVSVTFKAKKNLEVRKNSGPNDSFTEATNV


Key:
[1] = biological target: T2, human NPY1-R (human, UniProt P25929)
[2] = biological target: T2, human NPY1-R; remark: listed apart in the source
[3] = biological target: T3, human GLP-1R (human, UniProt P43220); assay: cell-based or functional assay
[4] = biological target: T2, human NPY1-R; assay: cell-based or functional assay
[5] = biological target: T3, human GLP-1R; assay: cell-based or functional assay; remark: listed apart in the source
[6] = biological target: T1, human NPY2-R; assay: cell-based or functional assay
[7] = biological target: T2, human NPY1-R; assay: cell-based or functional assay; remark: listed apart in the source

| Molecule | EC50 (agonism of the Y1-R) [1] | EC50 Y1R [2] | EC50 [3] | EC50 (agonism of the Y1-R) [4] | EC50 GLP1R [5] | EC50 Y2R [6] | EC50 Y1R [7] |
| --- | --- | --- | --- | --- | --- | --- | --- |
| PYY1-36 (ligand) | 42 nM | 12 nM |  |  |  |  |  |
| HSQGTFTSDLSK(azido)YLEEEAVREFIAWLKNGGPSRHYLNLVTRQRY-NH2 [GEP44] |  |  | 300000 nM | 83 nM | 0.33 nM | 10 nM | 24 nM |
| HGEGTFTSDLSKQMEEEAVRLFIEWLKNGGPSSTRQRY (C-terminal amidation; K12-azido modification) [EP38] |  |  |  |  | 0.08 nM | > 300 nM |  |
| HSQGTFTSDLSK(azido)QINEEEAVRLFIEWLKNGGPSRHYLNLVTRQRY-NH2 [EP44] |  |  |  |  |  |  | > 100 nM |
